In the data set the target is MRN (MRE11-RAD50-NBS1) wild type (Homo sapiens, UniProt P49959;Q92878;O60934 1-708;1-1312;1-754). The experiment in a line: pull-down, immunoblot. (Immunoblotting shows a protein as a band on a membrane.)
Chain of MRN (MRE11-RAD50-NBS1) wild type (P49959 whole entry, chain 1 of 3): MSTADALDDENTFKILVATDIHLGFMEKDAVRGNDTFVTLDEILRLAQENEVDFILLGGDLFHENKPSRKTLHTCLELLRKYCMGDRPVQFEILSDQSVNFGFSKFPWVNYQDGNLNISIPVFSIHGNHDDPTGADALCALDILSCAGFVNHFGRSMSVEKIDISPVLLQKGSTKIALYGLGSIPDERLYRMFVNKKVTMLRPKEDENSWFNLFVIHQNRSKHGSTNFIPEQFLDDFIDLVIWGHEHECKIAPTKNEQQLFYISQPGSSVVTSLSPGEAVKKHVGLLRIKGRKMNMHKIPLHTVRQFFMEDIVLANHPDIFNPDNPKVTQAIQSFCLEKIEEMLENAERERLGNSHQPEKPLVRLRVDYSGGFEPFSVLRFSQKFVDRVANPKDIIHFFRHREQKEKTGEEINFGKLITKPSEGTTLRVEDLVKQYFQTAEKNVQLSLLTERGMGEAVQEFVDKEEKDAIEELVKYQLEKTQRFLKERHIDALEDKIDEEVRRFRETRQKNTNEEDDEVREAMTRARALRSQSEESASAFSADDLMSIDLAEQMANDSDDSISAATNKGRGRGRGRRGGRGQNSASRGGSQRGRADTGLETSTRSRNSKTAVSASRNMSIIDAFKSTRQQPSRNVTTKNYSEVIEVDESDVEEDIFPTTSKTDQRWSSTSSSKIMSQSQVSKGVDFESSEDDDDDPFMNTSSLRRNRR
Chain of MRN (MRE11-RAD50-NBS1) wild type (Q92878 whole entry, chain 2 of 3): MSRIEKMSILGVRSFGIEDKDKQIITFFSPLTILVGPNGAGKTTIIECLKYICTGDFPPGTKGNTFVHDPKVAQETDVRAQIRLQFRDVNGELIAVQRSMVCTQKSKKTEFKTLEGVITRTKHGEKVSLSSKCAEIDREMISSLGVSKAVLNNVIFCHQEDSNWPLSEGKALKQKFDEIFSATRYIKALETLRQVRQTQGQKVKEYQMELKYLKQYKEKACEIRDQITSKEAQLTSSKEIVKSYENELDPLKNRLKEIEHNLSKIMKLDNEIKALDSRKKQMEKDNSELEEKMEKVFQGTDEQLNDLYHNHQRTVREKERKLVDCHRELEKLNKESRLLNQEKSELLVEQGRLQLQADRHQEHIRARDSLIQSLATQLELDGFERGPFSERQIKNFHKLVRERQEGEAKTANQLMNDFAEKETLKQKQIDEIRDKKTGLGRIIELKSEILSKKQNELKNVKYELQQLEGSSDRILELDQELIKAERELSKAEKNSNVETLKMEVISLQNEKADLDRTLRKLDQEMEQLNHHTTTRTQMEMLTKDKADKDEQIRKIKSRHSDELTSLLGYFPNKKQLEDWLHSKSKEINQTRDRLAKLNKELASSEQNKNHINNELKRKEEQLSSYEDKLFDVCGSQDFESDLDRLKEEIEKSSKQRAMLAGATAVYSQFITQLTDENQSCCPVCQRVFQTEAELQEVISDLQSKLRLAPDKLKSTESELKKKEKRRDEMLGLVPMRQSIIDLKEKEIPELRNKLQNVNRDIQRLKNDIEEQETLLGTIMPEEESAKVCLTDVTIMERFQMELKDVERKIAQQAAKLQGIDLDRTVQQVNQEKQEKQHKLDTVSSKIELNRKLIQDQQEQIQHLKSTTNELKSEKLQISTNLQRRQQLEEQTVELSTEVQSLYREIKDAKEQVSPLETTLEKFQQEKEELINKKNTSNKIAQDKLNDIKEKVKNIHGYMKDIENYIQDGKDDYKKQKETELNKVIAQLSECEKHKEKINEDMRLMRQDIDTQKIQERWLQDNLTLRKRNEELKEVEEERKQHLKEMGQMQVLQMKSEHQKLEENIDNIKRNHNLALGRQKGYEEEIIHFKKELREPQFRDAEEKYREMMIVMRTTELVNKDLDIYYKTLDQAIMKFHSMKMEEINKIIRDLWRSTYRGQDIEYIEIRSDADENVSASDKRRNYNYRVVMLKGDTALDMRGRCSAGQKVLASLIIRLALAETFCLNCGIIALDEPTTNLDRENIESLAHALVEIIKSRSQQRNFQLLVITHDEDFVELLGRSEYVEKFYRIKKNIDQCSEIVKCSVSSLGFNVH
Chain of MRN (MRE11-RAD50-NBS1) wild type (O60934 whole entry, chain 3 of 3): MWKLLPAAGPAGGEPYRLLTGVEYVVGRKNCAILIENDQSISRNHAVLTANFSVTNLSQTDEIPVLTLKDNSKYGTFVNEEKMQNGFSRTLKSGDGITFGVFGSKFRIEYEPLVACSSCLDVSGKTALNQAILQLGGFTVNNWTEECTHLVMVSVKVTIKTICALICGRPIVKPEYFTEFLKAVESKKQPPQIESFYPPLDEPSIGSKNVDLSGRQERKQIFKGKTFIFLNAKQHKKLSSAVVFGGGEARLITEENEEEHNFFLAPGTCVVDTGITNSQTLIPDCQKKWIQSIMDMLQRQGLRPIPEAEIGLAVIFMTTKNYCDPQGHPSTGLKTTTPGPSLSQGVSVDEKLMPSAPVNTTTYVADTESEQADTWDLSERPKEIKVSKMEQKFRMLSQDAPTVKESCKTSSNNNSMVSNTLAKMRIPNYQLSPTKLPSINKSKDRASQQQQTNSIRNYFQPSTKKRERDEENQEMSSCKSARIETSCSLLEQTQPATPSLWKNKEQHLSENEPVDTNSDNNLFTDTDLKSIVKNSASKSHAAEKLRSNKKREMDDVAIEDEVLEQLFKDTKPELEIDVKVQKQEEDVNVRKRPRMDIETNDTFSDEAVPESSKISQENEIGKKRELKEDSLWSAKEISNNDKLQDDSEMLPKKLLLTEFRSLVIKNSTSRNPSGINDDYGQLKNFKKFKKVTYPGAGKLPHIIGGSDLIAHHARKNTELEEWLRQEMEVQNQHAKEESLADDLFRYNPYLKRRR

B1: Sj60mer blunt dsDNA (dsDNA)
DNA 1: TTGTAAAACGACGGCCAGTGAATTCATCATCAATAATATACCTTATTTTGGGATCTATGC
DNA 2: GCATAGATCCCAAAATAAGGTATATTATTGATGATGAATTCACTGGCCGTCGTTTTACAA
Regarding B1, the binding result is “binds”.

(Values after publication PMC7788559.)
